Results published in the supplement of paper PMC11246515.
± gives the standard deviation of the averaged measurements.

Experiment: total protein half-life in vivo (active degradation + dilution); higher = more stable protein
[1] = E. coli NCM3722 delta-clpP delta-lon delta-hslV, growth: N-lim chemostat, doubling time 6 h
[2] = E. coli NCM3722 delta-clpP, growth: N-lim chemostat, doubling time 6 h
[3] = E. coli NCM3722 delta-smpB, growth: N-lim chemostat, doubling time 6 h
[4] = wild type E. coli NCM3722, growth: C-lim chemostat, doubling time 3 h
[5] = wild type E. coli NCM3722, growth: C-lim chemostat, doubling time 6 h
[6] = wild type E. coli NCM3722, growth: C-lim chemostat, doubling time 12 h
[7] = wild type E. coli NCM3722, growth: N-lim chemostat, doubling time 6 h
[8] = wild type E. coli NCM3722, growth: N-lim chemostat, doubling time 12 h
[9] = wild type E. coli NCM3722, growth: P-lim chemostat, doubling time 6 h
[10] = wild type E. coli NCM3722, growth: P-lim chemostat, doubling time 12 h
[11] = E. coli NCM3722 delta-hslV, growth: N-lim chemostat, doubling time 6 h
[12] = E. coli NCM3722 delta-lon, growth: N-lim chemostat, doubling time 6 h

Sequence | total protein half-life in vivo [1] [h] | total protein half-life in vivo [2] [h] | total protein half-life in vivo [3] [h] | total protein half-life in vivo [4] [h] | total protein half-life in vivo [5] [h] | total protein half-life in vivo [6] [h] | total protein half-life in vivo [7] [h] | total protein half-life in vivo [8] [h] | total protein half-life in vivo [9] [h] | total protein half-life in vivo [10] [h] | total protein half-life in vivo [11] [h] | total protein half-life in vivo [12] [h]
MVTLYGIKNCDTIKKARRWLEANNIDYRFHDYRVDGLDSELLNDFINELGWEALLNTRGTTWRKLDETTRNKITDAASAAALMTEMPAIIKRPLLCVPGKPMLLGFSDSSYQQFFHEV | 5.94 ± 0.23 | 5.95 ± 0.25 | 5.87 ± 1.3 | 3.07 ± 0.16 | 6.1 ± 0.65 | 9.79 ± 1.3 | > 8 | 8.47 | 6.07 | 11.3 ± 0.18 |  | 
MVWLANPERYGQMQYRYCGKSGLRLPALSLGLWHNFGHVNALESQRAILRKAFDLGITHFDLANNYGPPPGSAEENFGRLLREDFAAYRDELIISTKAGYDMWPGPYGSGGSRKYLLASLDQSLKRMGLEYVDIFYSHRVDENTPMEETASALAHAVQSGKALYVGISSYSPERTQKMVELLREWKIPLLIHQPSYNLLNRWVDKSGLLDTLQNNGVGCIAFTPLAQGLLTGKYLNGIPQDSRMHREGNKVRGLTPKMLTEANLNSLRLLNEMAQQRGQSMAQMALSWLLKDDRVTSVLIGASRAEQLEENVQALNNLTFSTKELAQIDQHIADGELNLWQASSDK | 5.44 ± 0.59 | 5.3 ± 0.24 | 4.18 ± 0.68 | 3.2 ± 0.16 | 6.28 ± 0.24 | 11.4 ± 1.3 | 5.12 ± 0.82 | 8.176 ± 0.024 | 6.24 ± 0.32 | 12.4 ± 1.1 | 4.93 ± 0.43 | 5.69 ± 0.77
MYAAKGTQAYAQIGVESAVMSASQQQLVTMLFDGVLSALVRASLFMQDNNQQGKGVSLSKAINIIENGLRVSLDEESKDELTQNLIALYSYMVRRLLQANLRNDVSAVEEVEALMRNIADAWKESLLSPSLIQDPV |  |  |  | 0.207 ± 0.029 |  |  |  |  |  |  |  | 
MYDFNLVLLLLQQMCVFLVIAWLMSKTPLFIPLMQVTVRLPHKFLCYIVFSIFCIMGTWFGLHIDDSIANTRAIGAVMGGLLGGPVVGGLVGLTGGLHRYSMGGMTALSCMISTIVEGLLGGLVHSILIRRGRTDKVFNPITAGAVTFVAEMVQMLIILAIARPYEDAVRLVSNIAAPMMVTNTVGAALFMRILLDKRAMFEKYTSAFSATALKVAASTEGILRQGFNEVNSMKVAQVLYQELDIGAVAITDREKLLAFTGIGDDHHLPGKPISSTYTLKAIETGEVVYADGNEVPYRCSLHPQCKLGSTLVIPLRGENQRVMGTIKLYEAKNRLFSSINRTLGEGIAQLLSAQILAGQYERQKAMLTQSEIKLLHAQVNPHFLFNALNTIKAVIRRDSEQASQLVQYLSTFFRKNLKRPSEFVTLADEIEHVNAYLQIEKARFQSRLQVNIAIPQELSQQQLPAFTLQPIVENAIKHGTSQLLDTGRVAISARREGQHLMLEIEDNAGLYQPVTNASGLGMNLVDKRLRERFGDDYGISVACEPDSYTRITLRLPWRDEA [P0AD14] |  |  |  | 2.82 ± 0.28 | 5.37 ± 0.45 | 10.9 ± 0.79 |  |  | 6.05 ± 0.33 | 11.1 ± 1.1 |  | 
MYDNLKSLGITNPEEIDRYSLRQEANNDILKIYFQKDKGEFFAKSVKFKYPRQRKTVVADGVGQGYKEVQEISPNLRYIIDELDQICQRDRSEVDLKRKILDDLRHLESVVTNKISEIEADLEKLTRK |  | 4.32 ± 0.1 | 3.61 ± 0.31 | 3.26 ± 0.19 | 5.55 ± 0.13 | 8.4 ± 0.45 | 3.77 ± 0.094 | 6.16 ± 0.23 | 5.45 ± 1.6 | 12 ± 0.17 | 4.18 ± 0.52 | 4.82 ± 0.08
MYEALLVVFLIVAIGLVGLIMLQQGKGADMGASFGAGASATLFGSSGSGNFMTRMTALLATLFFIISLVLGNINSNKTNKGSEWENLSAPAKTEQTQPAAPAKPTSDIPN [P0AG99] | 3.64 ± 0.31 | 3.46 ± 0.55 | 3.78 ± 0.13 | 2.33 ± 0.097 | 4.91 ± 1.3 | 6.22 ± 0.14 | 3.81 ± 0.04 | 4.95 | 3.41 ± 0.17 | 6.12 ± 0.75 | 3.996 ± 0.032 | 4.58 ± 0.069
MYEFDWSSIVPSLPYLLDGLVITLKITVTAVVIGILWGTMLAVMRLSSFAPVAWFAKAYVNVFRSIPLVMVLLWFYLIVPGFLQNVLGLSPKNDIRLISAMVAFSMFEAAYYSEIIRAGIQSISRGQSSAALALGMTHWQSMKLIILPQAFRAMVPLLLTQGIVLFQDTSLVYVLSLADFFRTASTIGERDGTQVEMILFAGFVYFVISLSASLLVSYLKRRTA [P0AER5] | 7.04 | 5.18 | 5.15 ± 0.1 |  | 6.05 ± 0.51 | 12.6 ± 1.8 | 5.68 ± 0.1 | 9.5 ± 4.4 | 6.36 ± 0.33 | 11.4 ± 0.52 | 6.35 | 5.47
MYFLNDLNFSRRDAGFKARKDALDIASDYENISVVNIPLWGGVVQRIISSVKLSTFLCGLENKDVLIFNFPMAKPFWHILSFFHRLLKFRIVPLIHDIDELRGGGGSDSVRLATCDMVISHNPQMTKYLSKYMSQDKIKDIKIFDYLVSSDVEHRDVTDKQRGVIYAGNLSRHKCSFIYTEGCDFTLFGVNYENKDNPKYLGSFDAQSPEKINLPGMQFGLIWDGDSVETCSGAFGDYLKFNNPHKTSLYLSMELPVFIWDKAALADFIVDNRIGYAVGSIKEMQEIVDSMTIETYKQISENTKIISQKIRTGSYFRDVLEEVIDDLKTR | 6.47 | 7.29 | 4.15 ± 0.31 |  |  |  |  |  |  |  |  | 5.02 ± 0.14
MYLRPDEVARVLEKVGFTVDVVTQKAYGYRRGENYVYVNREARMGRTALVIHPTLKERSSTLAEPASDIKTCDHYQQFPLYLAGERHEHYGIPHGFSSRVALERYLNGLFGEAS [P0AD53] | 4.77 ± 0.34 | 1.5 | 0.698 ± 0.21 | 1.18 ± 0.14 | 1.81 ± 0.54 | 1.42 | 0.609 ± 0.47 | 1.14 | 1.03 ± 0.22 | 2.61 | 0.818 | 2.99 ± 0.41
